Here are results for one molecule from patent US20220372084A1 (MJCELL BIO, published 2022).

This experiment concerns the target PA63 ligand (truncated 63 kDa portion of anthrax protective antigen), reagent conjugated with FITC (Bacillus anthracis, UniProt P13423 197-764). Nature of the experiment: flow cytometry, FITC-conjugated PA63 on cell lines expressing ANTXR1 and ANTXR2. A general note: A flow cytometer gives signals particle by particle.

B1: ANTXR1 (anthrax toxin receptor 1) (receptor)
chain: not shown
notes: whole, on cells
Regarding B1, the binding result is reported as “binds”.
